Reference: patent US20080025989A1 (Seagen, published 2008)

Assays:
human CD70 [1] = biological target: T1, human CD70 (human, UniProt P32970 1-193); assay: immunohistochemistry on frozen RCC tumor sections, 2 µg/ml
T1 construct: whole, on cells; Endogenous CD70 on cells or in frozen tissue sections; A trimeric structure is only predicted, from the literature; also called CD27L
T1 sequence (looked up): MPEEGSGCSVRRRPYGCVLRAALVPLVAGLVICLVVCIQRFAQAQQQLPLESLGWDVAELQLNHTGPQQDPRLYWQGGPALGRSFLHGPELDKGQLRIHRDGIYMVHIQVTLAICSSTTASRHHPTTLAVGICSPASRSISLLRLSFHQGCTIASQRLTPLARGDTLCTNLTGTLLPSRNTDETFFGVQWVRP
Procedure: Immunohistochemistry was used to determine if over-expression of CD70 transcript in RCC was paralleled by CD70 protein expression. Frozen RCC tissue sections and normal adjacent tissue sections from two patients independent of those used in CD70 transcript analysis (FIGS. 6 and 7) were fixed in acetone at −20° C. for 10 minutes. After rehydration in PBS, sections were blocked with PBS containing 5% normal goat serum and Avidin D for 30 minutes at room temperature, and washed in PBS. Sections were incubated with the anti-CD70 mAb 2F2 or non-binding IgG at 2 μg/ml in PBS containing 5% normal goat serum with biotin for 60 minutes at room temperature. After washes with PBS, biotinylated anti-mouse IgG (VECTASTAIN ABC Kit, Vector Laboratories, Burlingame, Calif.) at a 1:250 dilution in PBS containing 5% normal goat serum was used to detect bound primary antibody by incubating for 30 minutes at room temperature. Excess biotinylated anti-mouse IgG was removed by PBS washes. Sections were quenched with 1% H₂O₂ in PBS for 30 minutes at room temperature, washed, and then incubated with the VECTASTAIN ABC complex made up according to the manufacturer's instructions. After PBS washes, sections were incubated for 30 minutes at room temperature with the DAB solution (VECTASTAIN ABC Kit) made up according to the manufacturer's instructions for color development. […]

human CD70 [2] = biological target: T1, human CD70; assay: cell-based or functional assay
human CD70 [3] = biological target: T1, human CD70; assay: flow cytometry on allo-activated T cells after 5 days of MLR
Excerpt: In the second system, an MLR was set up between PBMC and an irradiated allogeneic stimulator CESS. Allogeneic activation of peripheral blood T cells was achieved by conventional mixed lymphoycte reactions (MLR). MLR were initiated by mixing PBMCs and irradiated allogeneic Epstein-Barr virus (EBV)-transformed B lymphoblastoid CESS cells (ATCC, Manassas, Va.) at a ratio of one T cell to ten irradiated CESS cells. T cell density was adjusted to 0.25×10⁶ T cells/ml of RPMI-1640 supplemented with 10% FBS and 2 mM L-glutamine. Rapid proliferation and expansion of alloreactive T cells was observed after approximately 96 hours of culture. After 5 days of stimulation, cells were assessed for CD70 expression using the anti-CD70 mAb 1F6 by flow cytometry. […] In parallel cultures in 96-well plates, graded doses of either 1F6-vcMMAE or 1F6-vcAFP were included in the cultures at initiation. DNA synthesis was assayed during the last 16 hours of the 5-day culture by a pulse of ³H-TdR.

human CD70 [4] = biological target: T1, human CD70; assay: cell-based or functional assay; remark: listed apart in the source
human CD70 [5] = biological target: T1, human CD70; assay: cell-based or functional assay; remark: listed apart in the source
human CD70 [6] = biological target: T1, human CD70; assay: cell-based or functional assay; remark: listed apart in the source

B1: anti-human CD70 monoclonal antibody 2F2 (antibody, mouse IgG1, V domains shown)
VH: QVQLQQSGTELMTPGASVTMSCKTSGYTFSTYWIEWVKQRPGHGLEWIGEILGPSGYTDYNEKFKAKATFTADTSSNTAYMQLSSLASEDSAVYYCARWDRLYAMDYWGGGTSVTVSS
VL: DIVLTQSPASLTVSLGQKTTISCRASKSVSTSGYSFMHWYQLKPGQSPKLLIYLASDLPSGVPARFSGSGSGTDFTLKIHPVEEEDAATYYCQHSREIPYTFGGGTKLEITR
notes: Murine hybridoma mAb; they were cloned with mouse IgG1 and kappa gene-specific primers; also called mAb 2F2
- binding result (human CD70 [1]): binds

B2: 1F6-vcAFP (antibody, V domains shown)
VH: QIQLVQSGPEVKKPGETVKISCKASGYTFTNYGMNWVKQAPGKGLKWMGWINTYTGEPTYADAFKGRFAFSLETSASTAYLQINNLKNEDTATYFCARDYGDYGMDYWGQGTSVTVSS
VL: DIVLTQSPASLAVSLGQRATISCRASKSVSTSGYSFMHWYQQKPGQPPKLLIYLASNLESGVPARFSGSGSGTDFTLNIHPVEEEDAATYYCQHSREVPWTFGGGTKLEIKR
modifications: maleimidocaproyl-val-cit-AFP on cysteine thiols of the DTT-reduced antibody (positions not stated)
- IC50, cytotoxicity (alamarBlue) on CD70+ RCC lines (human CD70 [2]): < 0.02 µg/mL
- IC50, proliferation of activated CD70-expressing T cell clones C2A, 40D8 and 4.01.1 (human CD70 [2]): < 0.05 µg/mL

B3: anti-human CD70 monoclonal antibody 1F6 (antibody, mouse IgG1, V domains shown)
VH: B2 VH
VL: B2 VL
notes: Murine hybridoma mAb from the Netherlands Red Cross Blood Transfusion Service; they were cloned with mouse IgG1 and kappa gene-specific primers; Used AlexaFluor488-conjugated for flow cytometry where necessary; also called mAb 1F6; AF-conjugated 1F6
- binding result (human CD70 [3]): binds

B4: chimeric 1F6 (c1F6)-mcMMAF4 (antibody, V domains shown)
VH: B2 VH
VL: B2 VL
modifications: maleimidocaproyl-MMAF drug-linker, average of four per antibody (positions not stated)
- IC50 (ng/mL), cytotoxicity on Hs445 cells (human CD70 [4]): 310 ng/mL
- IC50 (ng/mL), cytotoxicity on KMH2 cells (human CD70 [4]): 5.2 ng/mL
- IC50 (ng/mL), cytotoxicity on L428 cells (human CD70 [4]): 35 ng/mL
- IC50 (ng/mL), cytotoxicity on RPMI-6666 cells (human CD70 [4]): 230 ng/mL
- IC50 (ng/mL), cytotoxicity on SUP-HD-1 cells (human CD70 [4]): 53 ng/mL
- IC50 (ng/mL), cytotoxicity on DBTRG-05MG cells (human CD70 [5]): 20 ng/mL
- IC50 (ng/mL), cytotoxicity on GMS-10 cells (human CD70 [5]): 110 ng/mL
- IC50 (ng/mL), cytotoxicity on SNB-19 cells (human CD70 [5]): 27 ng/mL
- IC50 (ng/mL), cytotoxicity on U251 cells (human CD70 [5]): 15 ng/mL
- IC50 (ng/mL), cytotoxicity on U373MG cells (human CD70 [5]): 35 ng/mL
- IC50 (ng/mL), cytotoxicity on AMO-1 cells (human CD70 [6]): 38 ng/mL
- IC50 (ng/mL), cytotoxicity on JJN-3 cells (human CD70 [6]): 61 ng/mL
- IC50 (ng/mL), cytotoxicity on L363 cells (human CD70 [6]): 210 ng/mL
- IC50 (ng/mL), cytotoxicity on LB cells (human CD70 [6]): 500 ng/mL
- IC50 (ng/mL), cytotoxicity on LP-1 cells (human CD70 [6]): 155 ng/mL
- IC50 (ng/mL), cytotoxicity on MM.1R cells (human CD70 [6]): 20 ng/mL
- IC50 (ng/mL), cytotoxicity on MM.1S cells (human CD70 [6]): 22 ng/mL
- IC50 (ng/mL), cytotoxicity on MOLP-8 cells (human CD70 [6]): 33 ng/mL
- IC50 (ng/mL), cytotoxicity on U266 cells (human CD70 [6]): 1.7 ng/mL

B5: chimeric 1F6(c1F6)-vcMMAF4 (antibody, V domains shown)
VH: B2 VH
VL: B2 VL
modifications: val-cit-MMAF drug-linker, average of four per antibody (positions not stated)
- IC50 (ng/mL), cytotoxicity on Hs445 cells (human CD70 [4]): 7.3 ng/mL
- IC50 (ng/mL), cytotoxicity on KMH2 cells (human CD70 [4]): 0.41 ng/mL
- IC50 (ng/mL), cytotoxicity on L428 cells (human CD70 [4]): 1.4 ng/mL
- IC50 (ng/mL), cytotoxicity on RPMI-6666 cells (human CD70 [4]): 42 ng/mL
- IC50 (ng/mL), cytotoxicity on SUP-HD-1 cells (human CD70 [4]): 6.3 ng/mL
- IC50 (ng/mL), cytotoxicity on DBTRG-05MG cells (human CD70 [5]): 2.3 ng/mL
- IC50 (ng/mL), cytotoxicity on GMS-10 cells (human CD70 [5]): 27 ng/mL
- IC50 (ng/mL), cytotoxicity on SNB-19 cells (human CD70 [5]): 12 ng/mL
- IC50 (ng/mL), cytotoxicity on U251 cells (human CD70 [5]): 5.3 ng/mL
- IC50 (ng/mL), cytotoxicity on U373MG cells (human CD70 [5]): 16 ng/mL
- IC50 (ng/mL), cytotoxicity on AMO-1 cells (human CD70 [6]): 16 ng/mL
- IC50 (ng/mL), cytotoxicity on JJN-3 cells (human CD70 [6]): 46 ng/mL
- IC50 (ng/mL), cytotoxicity on L363 cells (human CD70 [6]): 78 ng/mL
- IC50 (ng/mL), cytotoxicity on LB cells (human CD70 [6]): 80 ng/mL
- IC50 (ng/mL), cytotoxicity on LP-1 cells (human CD70 [6]): 160 ng/mL
- IC50 (ng/mL), cytotoxicity on MM.1R cells (human CD70 [6]): 13 ng/mL
- IC50 (ng/mL), cytotoxicity on MM.1S cells (human CD70 [6]): 20 ng/mL
- IC50 (ng/mL), cytotoxicity on MOLP-8 cells (human CD70 [6]): 73 ng/mL
- IC50 (ng/mL), cytotoxicity on U266 cells (human CD70 [6]): 1.2 ng/mL

B6: 1F6-vcMMAF (antibody, V domains shown)
VH: B2 VH
VL: B2 VL
modifications: MC-Val-Cit-PAB-MMAF on cysteine thiols of the DTT-reduced antibody (positions not stated)
- IC50, cytotoxicity (alamarBlue) on CD70+ RCC lines (human CD70 [2]): < 0.03 µg/mL
- IC50, proliferation inhibition of all CD70+ RCC lines tested (human CD70 [2]): < 0.03 µg/mL

B7: 1F6-vcMMAE (antibody, V domains shown)
VH: B2 VH
VL: B2 VL
modifications: maleimidocaproyl-val-cit-PAB-MMAE on cysteine thiols of the DTT-reduced antibody (positions not stated)
- IC50, proliferation of Caki-1 cells (human CD70 [2]): < 0.02 µg/mL
- IC50, proliferation of Caki-2 cells (human CD70 [2]): < 0.02 µg/mL
